Experimental findings from patent publication US20190374506A1 (BETH ISREAL DEACONESS MEDICAL CENTER, published 2019) are described below.

The labels stand for the following.
B1: Heterogeneous nuclear ribonucleoprotein U-like protein 1 (other)
chain: MDVRRLKVNELREELQRRGLDTRGLKAELAERLQAALEAEEPDDERELDADDEPGRPGHINEEVETEGGSELEGTAQPPPPGLQPHAEPGGYSGPDGHYAMDNITRQNQFYDTQVIKQENESGYERRPLEMEQQQAYRPEMKTEMKQGAPTSFLPPEASQLKPDRQQFQSRKRPYEENRGRGYFEHREDRRGRSPQPPAEEDEDDFDDTLVAIDTYNCDLHFKVARDRSSGYPLTIEGFAYLWSGARASYGVRRGRVCFEMKINEEISVKHLPSTEPDPHVVRIGWSLDSCSTQLGEEPFSYGYGGTGKKSTNSRFENYGDKFAENDVIGCFADFECGNDVELSFTKNGKWMGIAFRIQKEALGGQALYPHVLVKNCAVEFNFGQRAEPYCSVLPGFTFIQHLPLSERIRGTVGPKSKAECEILMMVGLPAAGKTTWAIKHAASNPSKKYNILGTNAIMDKMRVMGLRRQRNYAGRWDVLIQQATQCLNRLIQIAARKKRNYILDQTNVYGSAQRRKMRPFEGFQRKAIVICPTDEDLKDRTIKRTDEEGKDVPDHAVLEMKANFTLPDVGDFLDEVLFIELQREEADKLVRQYNEEGRKAGPPPEKRFDNRGGGGFRGRGGGGGFQRYENRGPPGGNRGGFQNRGGGSGGGGNYRGGFNRSGGGGYSQNRWGNNNRDNNNSNNRGSYNRAPQQQPPPQQPPPPQPPPQQPPPPPSYSPARNPPGASTYNKNSNIPGSSANTSTPTVSSYSPPQPSYSQPPYNQGGYSQGYTAPPPPPPPPPAYNYGSYGGYNPAPYTPPPPPTAQTYPQPSYNQYQQYAQQWNQYYQNQGQWPPYYGNYDYGSYSGNTQGGTSTQ
B2: Clustered mitochondria protein homolog (other)
chain: MLLNGDCPESLKKEAAAAEPPRENGLDEAGPGDETTGQEVIVIQDTGFSVKILAPGIEPFSLQVSPQEMVQEIHQVLMDREDTCHRTCFSLHLDGNVLDHFSELRSVEGLQEGSVLRVVEEPYTVREARIHVRHVRDLLKSLDPSDAFNGVDCNSLSFLSVFTDGDLGDSGKRKKGLEMDPIDCTPPEYILPGSRERPLCPLQPQNRDWKPLQCLKVLTMSGWNPPPGNRKMHGDLMYLFVITAEDRQVSITASTRGFYLNQSTAYHFNPKPASPRFLSHSLVELLNQISPTFKKNFAVLQKKRVQRHPFERIATPFQVYSWTAPQAEHAMDCVRAEDAYTSRLGYEEHIPGQTRDWNEELQTTRELPRKNLPERLLRERAIFKVHSDFTAAATRGAMAVIDGNVMAINPSEETKMQMFIWNNIFFSLGFDVRDHYKDFGGDVAAYVAPTNDLNGVRTYNAVDVEGLYTLGTVVVDYRGYRVTAQSIIPGILERDQEQSVIYGSIDFGKTVVSHPRYLELLERTSRPLKILRHQVLNDRDEEVELCSSVECKGIIGNDGRHYILDLLRTFPPDLNFLPVPGEELPEECARAGFPRAHRHKLCCLRQELVDAFVEHRYLLFMKLAALQLMQQNASQLETPSSLENGGPSSLESKSEDPPGQEAGSEEEGSSASGLAKVKELAETIAADDGTDPRSREVIRNACKAVGSISSTAFDIRFNPDIFSPGVRFPESCQDEVRDQKQLLKDAAAFLLSCQIPGLVKDCMEHAVLPVDGATLAEVMRQRGINMRYLGKVLELVLRSPARHQLDHVFKIGIGELITRSAKHIFKTYLQGVELSGLSAAISHFLNCFLSSYPNPVAHLPADELVSKKRNKRRKNRPPGAADNTAWAVMTPQELWKNICQEAKNYFDFDLECETVDQAVETYGLQKITLLREISLKTGIQVLLKEYSFDSRHKPAFTEEDVLNIFPVVKHVNPKASDAFHFFQSGQAKVQQGFLKEGCELINEALNLFNNVYGAMHVETCACLRLLARLHYIMGDYAEALSNQQKAVLMSERVMGTEHPNTIQEYMHLALYCFASSQLSTALSLLYRARYLMLLVFGEDHPEMALLDNNIGLVLHGVMEYDLSLRFLENALAVSTKYHGPKALKVALSHHLVARVYESKAEFRSALQHEKEGYTIYKTQLGEDHEKTKESSEYLKCLTQQAVALQRTMNEIYRNGSSANIPPLKFTAPSMASVLEQLNVINGILFIPLSQKDLENLKAEVARRHQLQEASRNRDRAEEPMATEPAPAGAPGDLGSQPPAAKDPSPSVQG
B3: Structural maintenance of chromosomes protein 1A (other)
chain: MGFLKLIEIENFKSYKGRQIIGPFQRFTAIIGPNGSGKSNLMDAISFVLGEKTSNLRVKTLRDLIHGAPVGKPAANRAFVSMVYSEEGAEDRTFARVIVGGSSEYKINNKVVQLHEYSEELEKLGILIKARNFLVFQGAVESIAMKNPKERTALFEEISRSGELAQEYDKRKKEMVKAEEDTQFNYHRKKNIAAERKEAKQEKEEADRYQRLKDEVVRAQVQLQLFKLYHNEVEIEKLNKELASKNKEIEKDKKRMDKVEDELKEKKKELGKMMREQQQIEKEIKEKDSELNQKRPQYIKAKENTSHKIKKLEAAKKSLQNAQKHYKKRKGDMDELEKEMLSVEKARQEFEERMEEESQSQGRDLTLEENQVKKYHRLKEEASKRAATLAQELEKFNRDQKADQDRLDLEERKKVETEAKIKQKLREIEENQKRIEKLEEYITTSKQSLEEQKKLEGELTEEVEMAKRRIDEINKELNQVMEQLGDARIDRQESSRQQRKAEIMESIKRLYPGSVYGRLIDLCQPTQKKYQIAVTKVLGKNMDAIIVDSEKTGRDCIQYIKEQRGEPETFLPLDYLEVKPTDEKLRELKGAKLVIDVIRYEPPHIKKALQYACGNALVCDNVEDARRIAFGGHQRHKTVALDGTLFQKSGVISGGASDLKAKARRWDEKAVDKLKEKKERLTEELKEQMKAKRKEAELRQVQSQAHGLQMRLKYSQSDLEQTKTRHLALNLQEKSKLESELANFGPRINDIKRIIQSREREMKDLKEKMNQVEDEVFEEFCREIGVRNIREFEEEKVKRQNEIAKKRLEFENQKTRLGIQLDFEKNQLKEDQDKVHMWEQTVKKDENEIEKLKKEEQRHMKIIDETMAQLQDLKNQHLAKKSEVNDKNHEMEEIRKKLGGANKEMTHLQKEVTAIETKLEQKRSDRHNLLQACKMQDIKLPLSKGTMDDISQEEGSSQGEDSVSGSQRISSIYAREALIEIDYGDLCEDLKDAQAEEEIKQEMNTLQQKLNEQQSVLQRIAAPNMKAMEKLESVRDKFQETSDEFEAARKRAKKAKQAFEQIKKERFDRFNACFESVATNIDEIYKALSRNSSAQAFLGPENPEEPYLDGINYNCVAPGKRFRPMDNLSGGEKTVAALALLFAIHSYKPAPFFVLDEIDAALDNTNIGKVANYIKEQSTCNFQAIVISLKEEFYTKAESLIGVYPEQGDCVISKVLTFDLTKYPDANPNPNEQ
B4: Structural maintenance of chromosomes protein 3 (other)
chain: MYIKQVIIQGFRSYRDQTIVDPFSSKHNVIVGRNGSGKSNFFYAIQFVLSDEFSHLRPEQRLALLHEGTGPRVISAFVEIIFDNSDNRLPIDKEEVSLRRVIGAKKDQYFLDKKMVTKNDVMNLLESAGFSRSNPYYIVKQGKINQMATAPDSQRLKLLREVAGTRVYDERKEESISLMKETEGKREKINELLKYIEERLHTLEEEKEELAQYQKWDKMRRALEYTIYNQELNETRAKLDELSAKRETSGEKSRQLRDAQQDARDKMEDIERQVRELKTKISAMKEEKEQLSAERQEQIKQRTKLELKAKDLQDELAGNSEQRKRLLKERQKLLEKIEEKQKELAETEPKFNSVKEKEERGIARLAQATQERTDLYAKQGRGSQFTSKEERDKWIKKELKSLDQAINDKKRQIAAIHKDLEDTEANKEKNLEQYNKLDQDLNEVKARVEELDRKYYEVKNKKDELQSERNYLWREENAEQQALAAKREDLEKKQQLLRAATGKAILNGIDSINKVLDHFRRKGINQHVQNGYHGIVMNNFECEPAFYTCVEVTAGNRLFYHIVDSDEVSTKILMEFNKMNLPGEVTFLPLNKLDVRDTAYPETNDAIPMISKLRYNPRFDKAFKHVFGKTLICRSMEVSTQLARAFTMDCITLEGDQVSHRGALTGGYYDTRKSRLELQKDVRKAEEELGELEAKLNENLRRNIERINNEIDQLMNQMQQIETQQRKFKASRDSILSEMKMLKEKRQQSEKTFMPKQRSLQSLEASLHAMESTRESLKAELGTDLLSQLSLEDQKRVDALNDEIRQLQQENRQLLNERIKLEGIITRVETYLNENLRKRLDQVEQELNELRETEGGTVLTATTSELEAINKRVKDTMARSEDLDNSIDKTEAGIKELQKSMERWKNMEKEHMDAINHDTKELEKMTNRQGMLLKKKEECMKKIRELGSLPQEAFEKYQTLSLKQLFRKLEQCNTELKKYSHVNKKALDQFVNFSEQKEKLIKRQEELDRGYKSIMELMNVLELRKYEAIQLTFKQVSKNFSEVFQKLVPGGKATLVMKKGDVEGSQSQDEGEGSGESERGSGSQSSVPSVDQFTGVGIRVSFTGKQGEMREMQQLSGGQKSLVALALIFAIQKCDPAPFYLFDEIDQALDAQHRKAVSDMIMELAVHAQFITTTFRPELLESADKFYGVKFRNKVSHIDVITAEMAKDFVEDDTTHG
B5: Huntingtin-interacting protein 1-related protein (other)
chain: MNSIKNVPARVLSRRPGHSLEAEREQFDKTQAISISKAINTQEAPVKEKHARRIILGTHHEKGAFTFWSYAIGLPLPSSSILSWKFCHVLHKVLRDGHPNVLHDCQRYRSNIREIGDLWGHLHDRYGQLVNVYTKLLLTKISFHLKHPQFPAGLEVTDEVLEKAAGTDVNNIFQLTVEMFDYMDCELKLSESVFRQLNTAIAVSQMSSGQCRLAPLIQVIQDCSHLYHYTVKLLFKLHSCLPADTLQGHRDRFHEQFHSLRNFFRRASDMLYFKRLIQIPRLPEGPPNFLRASALAEHIKPVVVIPEEAPEDEEPENLIEISTGPPAGEPVVVADLFDQTFGPPNGSVKDDRDLQIESLKREVEMLRSELEKIKLEAQRYIAQLKSQVNALEGELEEQRKQKQKALVDNEQLRHELAQLRAAQLEGERSQGLREEAERKASATEARYNKLKEKHSELVHVHAELLRKNADTAKQLTVTQQSQEEVARVKEQLAFQVEQVKRESELKLEEKSDQLEKLKRELEAKAGELARAQEALSHTEQSKSELSSRLDTLSAEKDALSGAVRQREADLLAAQSLVRETEAALSREQQRSSQEQGELQGRLAERESQEQGLRQRLLDEQFAVLRGAAAEAAGILQDAVSKLDDPLHLRCTSSPDYLVSRAQEALDAVSTLEEGHAQYLTSLADASALVAALTRFSHLAADTIINGGATSHLAPTDPADRLIDTCRECGARALELMGQLQDQQALRHMQASLVRTPLQGILQLGQELKPKSLDVRQEELGAVVDKEMAATSAAIEDAVRRIEDMMNQARHASSGVKLEVNERILNSCTDLMKAIRLLVTTSTSLQKEIVESGRGAATQQEFYAKNSRWTEGLISASKAVGWGATQLVEAADKVVLHTGKYEELIVCSHEIAASTAQLVAASKVKANKHSPHLSRLQECSRTVNERAANVVASTKSGQEQIEDRDTMDFSGLSLIKLKKQEMETQVRVLELEKTLEAERMRLGELRKQHYVLAGASGSPGEEVAIRPSTAPRSVTTKKPPLAQKPSVAPRQDHQLDKKDGIYPAQLVNY

The target of the assay is T1, HA-PTEN (human, UniProt P60484 1-403).
T1 construct: Expressed in DU145 cells and immunoprecipitated with anti-PTEN antibody for mass spectrometry; also called exogenous PTEN; pcDNA3-HA-PTEN; not shown: HA tag
As to the kind of experiment: anti-PTEN immunoprecipitation from DU145 cells transfected with HA-PTEN, SDS-PAGE, mass-spectrometric peptide sequencing of the bands (association in the precipitate). From the text:
FIG. 2A is a Western blot. Lysates from DU145 cells transfected with HA-PTEN were immunoprecipitated with an anti-PTEN antibody followed by mass-spectrometric peptide sequencing. WWP1 and NEDD4-1 were identified.
In order to identify the E3 ligases that induce PTEN atypical K27-linked poly-ubiquitination, exogenous PTEN was immunoprecipitated from DU145 cells, followed by identification of the proteins that interacted with PTEN by mass spectrometry (FIG. 2A; FIG. 18).
In the case of B1, the binding result is recorded as “binds”.

As to B2, the binding result is recorded as “binds”.

As for B3, the binding result is reported as “binds”.

In the case of B4, the binding result is listed as “binds”.

B5: the binding result is reported as “binds”.
